This passage reports stoichiometry N (MutL dimer per UvrD-Cy3 monomer) results from article PMC6201271.

In the assay the target is UvrDΔCys(A100C) labeled with Cy3 (E. coli) (UniProt P03018). In words: AUC.

“E. coli MutL protein (from UniProt P23367 1-615) (natural protein)”: the stoichiometry N (MutL dimer per UvrD-Cy3 monomer) was found to be 1.
